Reference: patent US20110088129A1

How the values were obtained:
[1] = target: binding sites in brush border membrane vesicles (BBMV) from midguts of last instar Helicoverpa zea larvae (Helicoverpa zea); experiment: homologous competition, 125I-Cry1Ac on H. zea BBMV, LIGAND program
[2] = target: binding sites in brush border membrane vesicles (BBMV) from midguts of last instar Helicoverpa armigera larvae (Helicoverpa armigera); experiment: homologous competition, 125I-Cry1Ac on H. armigera BBMV, LIGAND program
[3] = target: binding sites in brush border membrane vesicles (BBMV) from midguts of last instar Helicoverpa armigera larvae (Helicoverpa armigera); experiment: direct saturation assay, labeled Cry1Ac on BBMV at the same concentration as for Cry2Ab

Cry1Ac activated toxin (trypsin-activated Cry1Ac protoxin from B. thuringiensis strain HD73) (from UniProt P05068 29-623) (ligand)
Kd [1]: 0.17 nM | Rt (binding site concentration) (pmol/mg BBMV protein) [1]: 10 | Kd [2]: 0.08 nM | Rt (binding site concentration) (pmol/mg BBMV protein) [2]: 0.96 | fold less toxin needed for saturation than in the Cry2Ab assay [3]: 4 fold
